The target in the assay is T1, recombinant human IL-6 (human, UniProt P05231 30-212, labeled with radioactive iodine).
T1 construct: Labeled probe in solution, added to wells that carry the synthetic peptides; also called IL-6 ligand; Interleukin-6
The experiment in a line: radioiodinated IL-6 on peptide array.
QMYSDGNFTDVSVVEIEANDKKPF [Peptide E69]: the Counts/minute bound came to 1190 counts/minute.
The same measure for TQGYRTVQLVWKTLPPFEANGKIL [Peptide E35]: 1170 counts/minute.
The same measure for FQATHPVMDLKAFPKDNMLWVEWT [Peptide E43]: 1300 counts/minute; for CYLITVTPVYADGPGSPESIKAYL [Peptide E50]: 1260 counts/minute; for FNKRDLIKKHIWPNVPDPSKSHIA [Peptide E65]: 5740 counts/minute.
The same measure for PPRHNFNSKDQMYSDGNFTDVSVV [Peptide E68]: 1230 counts/minute; for IRNYTIFYRTIIGNETAVNVDSSH [Peptide E56]: 1640 counts/minute; for KKPFPEDLKSLDLFKKEKINTEGH [Peptide E71]: 2690 counts/minute.
Regarding KGPTVRTKKVGKNEAVLEWDQLPV [Peptide E53], the Counts/minute bound came to 1640 counts/minute.
In the case of SFWYKIDPSHTQGYRTVQLVWKTL [Peptide E34] it was 1140 counts/minute; in that of TRWKSHLQNYTVNATKLTVNLTND [Peptide E38], 3650 counts/minute; in that of IIGNETAVNVDSSHTEYTLSSLTS [Peptide E57], 1230 counts/minute.
In the case of ADGPGSPESIKAYLKQAPPSKGPT [Peptide E51] it was 1190 counts/minute.
In the case of TVNATKLTVNLTNDRYLATLTVRN [Peptide E39] it was 4360 counts/minute; in that of LTNDRYLATLTVRNLVGKSDAAVL [Peptide E40], 4800 counts/minute; in that of KKYILEWCVLSDKAPCITDWQQED [Peptide E46], 1710 counts/minute.
In the case of VSVVEIEANDKKPFPEDLKSLDLF [Peptide E70], the Counts/minute bound was found to be 1300 counts/minute.
In the case of KAYLKQAPPSKGPTVRTKKVGKNE [Peptide E52] it was 1820 counts/minute; in that of RMAAYTDEGGKDGPEFTFTTPKFA [Peptide E60], 1450 counts/minute; in that of GKNEAVLEWDQLPVDVQNGFIRNY [Peptide E54], 1310 counts/minute.
As to SHIAQWSPHTPPRHNFNSKDQMYS [Peptide E67], the Counts/minute bound amounted to 1200 counts/minute.
The same measure for VEWTTPRESVKKYILEWCVLSDKA [Peptide E45]: 1390 counts/minute; for KDGPEFTFTTPKFAQGEIEAIVVP [Peptide E61]: 1390 counts/minute.
The same measure for LTTLLGVLFCFNKRDLIKKHIWPN [Peptide E64]: 4500 counts/minute; for PFTEYVFRIRCMKEDGKGYWSDWS [Peptide E30]: 1260 counts/minute.
Regarding QQEDGTVHRTYLRGNLAESKCYLI [Peptide E48], the Counts/minute bound came to 1080 counts/minute.
In the case of AAVLTIPACDFQATHPVMDLKAFP [Peptide E42] it was 1120 counts/minute; in that of TVRNLVGKSDAAVLTIPACDFQAT [Peptide E41], 1100 counts/minute; in that of IWPNVPDPSKSHIAQWSPHTPPRH [Peptide E66], 1200 counts/minute.
In the case of RSSFTVQDLKPFTEYVFRIRCMKE [Peptide E29] it was 1320 counts/minute; in that of PKFAQGEIEAIVVPVCLAFLLTTL [Peptide E62], 2790 counts/minute; in that of DSSHTEYTLSSLTSDTLYMVRMAA [Peptide E58], 1350 counts/minute.
In the case of YLRGNLAESKCYLITVTPVYADGP [Peptide E49] it was 1540 counts/minute; in that of TEGHSSGIGGSSCMSSSRPSISSS [Peptide E73], 1060 counts/minute.
Regarding IVVPVCLAFLLTTLLGVLFCFNKR [Peptide E63], the Counts/minute bound was determined as 4520 counts/minute.
The same measure for TYEDRPSKAPSFWYKIDPSHTQGY [Peptide E33]: 1220 counts/minute; for GKILDYEVTLTRWKSHLQNYTVNA [Peptide E37]: 1790 counts/minute; for LDLFKKEKINTEGHSSGIGGSSCM [Peptide E72]: 1440 counts/minute.
In the case of QLPVDVQNGFIRNYTIFYRTIIGN [Peptide E55] it was 4360 counts/minute.
In the case of WKTLPPFEANGKILDYEVTLTRWK [Peptide E36] it was 1460 counts/minute; in that of SDWSEEASGITYEDRPSKAPSFWY [Peptide E32], 1160 counts/minute.
Take KAFPKDNMLWVEWTTPRESVKKYI [Peptide E44]: the Counts/minute bound is 1180 counts/minute.
The same measure for CMKEDGKGYWSDWSEEASGITYED [Peptide E31]: 1730 counts/minute.

(Values after patent US20040092720A1 (US Dept. of Health and Human Services, published 2004).)
